Laboratory results taken from paper PMC5847377 (Cell, 2017).

Columns and labels:
[1] = biological target: Angiogenin (ANG), human recombinant (human, UniProt P03950 25-147); experiment: equilibrium dialysis
ANG variant H13A = ANG variant H13A (human, UniProt P03950 25-147, H13A); experiment: ELISA
ANG variant H13A, sequence (P03950 25-147 H37A): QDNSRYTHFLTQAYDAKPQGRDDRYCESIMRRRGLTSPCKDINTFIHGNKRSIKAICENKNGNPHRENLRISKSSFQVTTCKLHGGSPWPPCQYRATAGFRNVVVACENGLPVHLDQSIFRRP

Angiogenin (ANG), human recombinant, sequence (P03950 25-147): as the sequence (P03950 25-147 H37A) above, with A13H counted along it

TSSEYDSILVEINKR [PLXNB2 peptide hplb2-15-06]: binds [1]; binds (ANG variant H13A).
